Reference: patent US20230322957A1 (ENGMAB SARL, published 2023)
Residue numbers refer to the chain shown, from its start.

B1: Mab 27 IgG (antibody, V domains shown)
VH: EVQLLESGGGLVQPGGSLRLSCAASGFTFSSAPMGWVRQAPGKGLEWVSAISYIGHTYYADSVKGRFTISRDNSKNTLYLQMNSLRAEDTAVYYCAKVLGWFDYWGQGTLVTVSS
VL: EIVLTQSPGTLSLSPGERATLSCRASQSVSEYYLAWYQQKPGQAPRLLIEHASTRATGIPDRFSGSGSGTDFTLTISRLEPEDFAVYYCQQYGYPPDFTFGQGTKVEIK
notes: Tested as human IgG1
B2: Mab 22 IgG (antibody, V domains shown)
VH: EVQLLESGGGLVQPGGSLRLSCAASGFTFSDNAMGWVRQAPGKGLEWVSAISGPGSSTYYADSVKGRFTISRDNSKNTLYLQMNSLRAEDTAVYYCAKVLGWFDYWGQGTLVTVSS
VL: B1 VL with E31S, E50S, H51G, S53G, T54S
notes: Tested as human IgG1; also called antibody 22; clone 22
B3: Mab 42 IgG (antibody, V domains shown)
VH: B2 VH
VL: B1 VL with E31D, Y32E, A35S, E50H, H51S, T75A
notes: Tested as human IgG1; also called antibody 42; clone 42
B4: Mab 39 IgG (antibody, V domains shown)
VH: B2 VH with S30T, D31Q, G53P, P54T, S56F
VL: B1 VL
notes: Tested as human IgG1
B5: Mab 33 IgG (antibody, V domains shown)
VH: B2 VH with S30Y, D31T, S52N, G53R, P54F, S56G
VL: B1 VL
notes: Tested as human IgG1

Target: recombinant cynomolgus BCMA Fc(kih) (cynomolgus, UniProt A0A2K5UD97 4-51, biotinylated in vivo at the avi-tag at the C-terminus of the Fc knob chain)
Assay: ratio of the SPR KDs of Table 4, human BCMA as reference
Method: Assessment of binding of anti-BCMA antibodies to recombinant BCMA by surface plasmon resonance (SPR) as follow. All SPR experiments were performed on a Biacore T200 at 25° C. with HBS-EP as running buffer (0.01M HEPES pH 7.4, 0.15M NaCl, 3 mM EDTA, 0.005% Surfactant P20, Biacore, Freiburg/Germany). The avidity of the interaction between anti-BCMA antibodies and recombinant BCMA Fc(kih) (human and cynomolgus) was determined. Biotinylated recombinant human and cynomolgus BCMA Fc(kih) were directly coupled on a SA chip following instructions (Biacore, Freiburg/Germany). The immobilization level ranged from 200 to 700 RU. […] The dissociation was monitored for 180 seconds. Bulk refractive index differences were corrected for by subtracting the response obtained on the reference flow cell. Here, the anti-BCMA antibodies were flown over an empty surface previously activated and deactivated as described in the standard amine coupling kit. Apparent kinetic constants were derived using the Biacore T200 Evaluation Software (vAA, Biacore AB, Uppsala/Sweden), to fit rate equations for 1:1 Langmuir binding by numerical integration, despite the bivalency of the interaction for comparison purposes. The affinity of the interaction between anti-BCMA antibodies and recombinant human BCMA Fc(kih) was also determined. Anti-human Fab antibody (GE Healthcare) was directly coupled on a CM5 chip at pH 5.0 using the standard amine coupling kit (Biacore, Freiburg/Germany). The immobilization level was about 6500 RU. […] The dissociation was monitored for 120 seconds. Bulk refractive index differences were corrected for by subtracting the response obtained on reference flow cell. […] Kinetic constants were derived using the Biacore T100 Evaluation Software (vAA, Biacore AB, Uppsala/Sweden), to fit rate equations for 1:1 Langmuir binding by numerical integration (Table 4).

recombinant cynomolgus BCMA Fc(kih), sequence (A0A2K5UD97 entry or part of it): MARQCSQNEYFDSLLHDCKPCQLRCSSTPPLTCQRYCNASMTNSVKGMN

Binder | Affinity cyno/hu gap (KD cynomolgus BCMA / KD human BCMA)
B1 | 12.7 fold
B2 | 15.4 fold
B3 | 1.7 fold
B4 | 14 fold
B5 | 4.2 fold
